{
  "source": "a protein production outcome set (Wang et al. 2014)",
  "assay": "label from the status in PepcDB records",
  "data": [
    {"sequence": "MTQAFSRVRFIMTQPSHPGNVGSAARAIKTMGFGELVLVAPRFPDMTAQPEAVALASGALDVLERAAVHDTLEEALAPVTLAFALTTRVRDLGPPPCDIREAAGLARRHLDDTEAGVVAIVLGTERAGLTNAQIELCHRICHIPANPQYSSLNVAQALQLAAWELRYALLAGTGQSLLPASSAQQANPGAAPADGAAVQALLAHWEQALVAVGFLDPAHPKKLMPRMKHLLTRSALSRDEVDMLRGVCTAMIAPNRPK", "values": [
      {"measurement": "protein production", "value": "not failed"}
    ]},
    {"sequence": "MTQAKFVEGSILRHILVMSSTAAVGISALFVVDLLDIFFLSLLGEHELAAAVGYAGSISFFTTLIGIGLSIALGALVSRSIGAKDVELAKRLLLNSAVVTTLISVFVSIVVTTFIPELVTLVGASGHTAELAESYLYILVPSLPFICLAMALGGALRSVGDAKLSMMSTLAGGGVNAVLDPIFIFLFAMGIEGAALASVLARITVFVIAGRGVMVKHQLLGKFNRSDFKADLKPIFAIAGPAILTNIATPIGNAFVTRAIADFGDAYVAGWAVLGRLVPVTFGMIFALSGAIGPIVGQNFGAGRFDRVRESLTKAIQFCTLYVVVMSLLLFLLKSQIVSLFDMKGDSAALIEFFCSYIAVFFIFSGILFVANASFNNLGKAKYSTLFNVGKATLGTVPFVYVGAQLGGVYGVLIGQVIGSILFGVVGVWVAYRLVDKVVLTSTGHGVVSLATDADELMTDTVAPSATSPLSSSCAQMAQLTEEQEMEPVLPLIGQQDNSRR", "values": [
      {"measurement": "protein production", "value": "failed"}
    ]},
    {"sequence": "MTQASRSEFRAELLSRIPRWYSPWGHLLFPAVAGLAIAAFALSRIEDLAAWQLAAVPAFLVFGNAVEWTAHRGMLHRRLRFAEVFYVRHTPQHHAVYVADDMAMRDWRELKLVLLPAYGVLAILAVTSPLTLAFLWLRQPNLAALWVASVVLYVLSYEWLHLAYHLPADRWLARTALVRTLRRHHQLHHAPHLMNRWNFNVTVPLWDWVRGTLYPAPAPGSRPAAQPTGAAGRAP", "values": [
      {"measurement": "protein production", "value": "failed"}
    ]},
    {"sequence": "MTQHITRMRREIDEIPEAVQRLLDHGAQDVARVAAVLRLRDPSFVATVARGSSDHVCTYLSYAAELLLGLPVASLGPSVASVYDARLRLDRALCLAVSQSGKSPDIVAMTRNAGRDGALCVALTNDAASPLAGVSAHTIDIHAGPELSVAATKTFVTSAVAGLMLLADWAEDDGLRAALGNLPETLAAASRIDWPEMRVAIGARPSLFTLGRGTSLAVSNEAALKFKETCQLHAESYSSAEVLHGPVSIVEEGFPVLGFAAGDAAEAPLAEIADQIAAKGATVFATTGRVTRARVLEHVRSGHALTDPLSLIVSFYSMVEAFASERGIDPDAPRHLNKVTETV", "values": [
      {"measurement": "protein production", "value": "not failed"}
    ]},
    {"sequence": "MTQKNVITEVFDIVFIFVLAFACVVIPTVLQGAVLVSWEEGGAGIGFVWDPVGFFSFLLVIVAFFAVILYHSVKHYRY", "values": [
      {"measurement": "protein production", "value": "failed"}
    ]},
    {"sequence": "MTQMRMPTSPTRPATAWPLYALPSPGEAIRQFTPNWFAVTMGTGILSLVLGQLPWPVPGAALLGAGLWRCNVGLFVVFSALYLARWALYPHEARRILAHPTASMFLGTIPMGLATLINGLLLYGLPRWGAAVIPVATALWWMDAAMALACGVLVPYLMFTRQQHRMEQMTALWLLPVVAAEVAAASAGALAPHLADAGSRFGMLVAGYVLWAYSVPVALGILVILWLRMALHQLPQASMAASSWLALGPIGTGALGMLVFAGDAPALFAAHGMGTIGQAAAGCGLIAGLLLWGLGLWWLALAILITARYFADKVPFNLGWWGFTFPLGVYALATLKLGAALQMQVFDVVGSVLVLLLCVTWTIVAARTAAGAYRGTLFVAPCLVESSEHAPAR", "values": [
      {"measurement": "protein production", "value": "failed"}
    ]},
    {"sequence": "MTQQNHLRGVLLASSACILWGISGVAASTLFINNPHLTAMWLTQVRMISAGLILLVWGMVAGKHPFKIWHHRHAAWTAVSYGLLGLIPVQLCYFEAVRVGNAPIATIIQFLGPFIISIYYFLFKHVTPSRIELIGMIMAFIGTLLIVTHGHLNSLAISPVILFWGGLSAIGVATNTLIPRTILPKYGALTVTGWGLLIAGLFLTLLQPMWRVHLTITWPQLGLLIVIILLGTVAPFLMFARSLSDILPTTASLMDAFEPLAATVFSITFLNVQLTSFDFIGGLLIILAVMALSLNTHKMLHFLRRRRAHSSS", "values": [
      {"measurement": "protein production", "value": "failed"}
    ]},
    {"sequence": "MTQTNNPLHGITLETIITQLVEHYGWEELGARIKIRCFTEAPSIKSSLRFLRKTDWAREKVEYLYLKTNKLPLPAAKSIQAPAKEPSKKSAPKPNSKPTQTKVVTPTPAVEGQVNSHIWGKRDLEHHHHHH", "values": [
      {"measurement": "protein production", "value": "not failed"}
    ]},
    {"sequence": "MTQVYKAKFGTPNRGWVIIVHGLGEHSGRYSKLVSMLVNEGYAVYTFDWPGHGKSPGKRGHTSVEEAMEIIDFIIEEINDKPFLFGHSLGGLTVIRYAETRPEKIRGVIASSPALAKSPKTPSFMVALAKILGVLLPSLTLSNGIDPNLLSRNPDAVKRYIEDPLVHDRISAKLGRSIFKNMDLAHREAHKIKVPVLLLVGTGDVITPPEGARKLYGEIKVEDKEIVEFEGAYHEIFEDPEWGEEFHKKIVEWIKKH", "values": [
      {"measurement": "protein production", "value": "failed"}
    ]},
    {"sequence": "MTRMQLHRLRYLLADVFGIVASYLSYNTLRYLTEEQERIYSTLSEYLFNAKSLWVGILYLLFWLSLFALSGYYNKPIAKSRISELLTTVASVLVGSVVVFLLLVVDDIVHDTALYLRLFFMMVATVLPWVYFPRLWVTTFGIKERKKTKGYHRVLLIGSGTIAEETASWLKSVNDMATTRLHFVPPTTREGFEQSLKSFATLVAEAVQESKPHQIILAVDCPDASFISLLLYQLYPFHMPVCVPMRSMLFAGAKVNVQGMKGEPMVDMTATNMSECAKSIKWFADRLFSLLMLILLIPVYAVIAVLVKRSSRGPVFFGQERIGLHGRPFTIYKFRTMYLDAEKDGPSLSFDGDSRVTPIGRILRKYRMDELPQFWNVLRGDMSFVGPRPERAFYIRQLVERAPYYYLLHNVRPGITSWGMVRYGYASTPDEMLERLQYDFLYYENMSLRLDIEVLLYTCQTIFKGLGK", "values": [
      {"measurement": "protein production", "value": "failed"}
    ]},
    {"sequence": "MTRQLLIVPIVKLKNLLTGRWLRYAFLSVAGNALIWGTSIQYLKVTKPTYTSEFALILSGASFGVNVNLPGIGQATSSSSSAIGSSTYDARANYEYIFTSEAVLKKAAAIAKIPEEQFSKPRIKLLDNSTIMQFEVTGKSPKEAQNKSLALYQAMVHQITVLRTGEINQRKDPTQKTLLSSQQKLERAQKHLSEYKLRSGLSFPDQIGNLSSNIEQLRRQRAEAKAQENATNQKLQQLAKNIGLSPQEAADAFLLRVDQIFQQNLKDYSEATTTLEILMTKYGPNHPQVVKERIRQEAALAALLERSQILLEKPMTTTILNRLALAVNGSGRDTLFQNLVTYQSDQKGLQSQVKTLDSEIQRLEKRLEILSQRQSKLENLKRDVQIAEAMFASTLTKLDLGQGDIFAAYPLVQMLVEPNLPDQPTAPKKSFILAGSAAGSIFSTLGLCLVWIRKPWIEKLSKWLS", "values": [
      {"measurement": "protein production", "value": "failed"}
    ]},
    {"sequence": "MTRRGGRLRTVLTVLTAWSALAGAALAGAAPAGGAPRSVPLAPGVEYTQFDIPADRGVTHAHLLSVDLADPRVRVGLLHPGAVAARAPVSRLADSQGALAGINGDFFNITETQHPGVEATGSTDGPAIADGHTLKAAVPNGQRFGPALPPGTTTEDVLGVGDDRRARLDRLALEGSVDTAAGELPLRGLNQYALPEGSVGAYTADWGSVSRARAVCGTDTDRAAPCSTDTYEVTVRDGQVVSFADSPGSGPIAAGTTVLVGREAGAQQLRKLSTGEEVSVEHRLVAAGSQVAYSFAIGGYPVLRQGKPLPGLDTVTSAVRTAVGIKDAGRRLLLLAIDGAAAYRSGLTIAEVASVMRGLGATEAFSLDGGGSTTLVARAPGATSVTVRNHPSGGAERPVPNGIGVFTRT", "values": [
      {"measurement": "protein production", "value": "failed"}
    ]},
    {"sequence": "MTRTLTTPLPTAPRAKPARRPTTLLFAYGATLNPEHIMVRLCQPKIRAIARLPDYRLGFHGHSEVWDSGLETLVDEPGAEAWGVLYELSATELDRFDAWQGVKLDGGGSYFHYPVEVIDENGQLLDALFHRKTEMGPQQPASRDYLDFILAGARARGLPARAIAVLEACTAVQARYPVPKMNTDIKALASKLSCAC", "values": [
      {"measurement": "protein production", "value": "failed"}
    ]},
    {"sequence": "MTRTPLTLEQLNALSDDAFTEHFAGVLEHSPHYARRAAAGRPFADVEEVAAAFARAVAADEPGAQVQLIRAHPDLAGKAALAGELTAESASEQTSAGLDRLSPEEYAEFQRLNAAYHERFGLPYVVCVRENTKDTIFEGARRRLTHTQEEEQAAALHEIGRIARLRILDLVQEGRQEKRMDGRLIRIPLEHHHHHH", "values": [
      {"measurement": "protein production", "value": "failed"}
    ]}
  ]
}
